Results published in PMC8049995 (The Journal of Biological Chemistry, 2021).
Where a chain is given by its changes, count along the chain named. In names and notes the source's numbering stands.

Assays:
SEC = biological target: the molecule itself; assay: SEC
SEC-MALS = biological target: the molecule itself; assay: SEC-MALS
AUC = biological target: the molecule itself; assay: AUC
crystal structure = biological target: the molecule itself; assay: crystal structure

B1: Human peroxiredoxin 2 C172W mutant, reduced (enzyme, UniProt P32119 2-198, looked up)
chain: ASGNARIGKPAPDFKATAVVDGAFKEVKLSDYKGKYVVLFFYPLDFTFVCPTEIIAFSNRAEDFRKLGCEVLGVSVDSQFTHLAWINTPRKEGGLGPLNIPLLADVTRRLSEDYGVLKTDEGIAYRGLFIIDGKGVLRQITVNDLPVGRSVDEALRLVQAFQYTDEHGEVWPAGWKPGSDTIKPNVDDSKEYFSKHN
percent decamer (SEC): 62%
stoichiometry N (SEC-MALS): 10

B2: Human peroxiredoxin 2 C172S mutant, reduced (enzyme, UniProt P32119 2-198, looked up)
chain: B1 chain with W171S
stoichiometry N (AUC): 10
percent decamer (SEC): 60%

B3: Human peroxiredoxin 2, recombinant wild type, hyperoxidized (CP sulfinate) form (enzyme, UniProt P32119 2-198, looked up)
chain: B1 chain with W171C
modifications: Cys51 (CP) sulfinate
stoichiometry N (crystal structure): 10

B4: Human peroxiredoxin 2 C172D mutant, reduced (enzyme, UniProt P32119 2-198, looked up)
chain: B1 chain with W171D
stoichiometry N (AUC): 10
percent decamer (SEC): 45%
